For orientation: stoichiometry N means a count of units in the complex or per binding partner.

In the test the target is cytochrome c oxidase from Aquifex aeolicus (AaCcO), protomer of subunits CoxA2, CoxB2 and IIa (Aquifex aeolicus) (UniProt O67937). In words: cryo-EM structure; single-particle cryo-EM with 3D classification (RELION) of the sample purified from native A. aeolicus membranes by anion exchange and size-exclusion chromatography; fractions with a dominant band around 242 kDa in Blue Native PAGE; two classes of particles (dimeric complex III, dimeric AaCcO); AaCcO dimer at 3.4 Å. In general terms: SEC sorts molecules by how far they enter the pores of the column.

As to “cytochrome c oxidase from Aquifex aeolicus (AaCcO), protomer of subunits CoxA2, CoxB2 and IIa (from UniProt O67937 1-592) (complex)”, the stoichiometry N was 2.

The values above are taken from publication PMC8251803.
